# Results published in US8765433B2, “Alcohol dehydrogenases (ADH) useful for fermentive production of lower alkyl alcohols” (priority 2009, dated 2014).
# B1: Phenylobacterium zucineum HLK1 ADH (PzADH), SEQ ID NO: 34 (Phenylobacterium zucineum HLK1) (protein)
# chain: MKALVYGGPGQKSLEDRPKPELQAPGDAIVRIVKTTICGTDLHILKGDVATCAPGRILGHEGVGIVDSVGAAVTAFRPGDHVLISCISACGKCDYCRRGMYSHCTTGGWILGNEIDGTQAEYVRTPHADTSLYPVPAGADEEALVMLSDILPTGFECGVLNGKVAPGGTVAIVGAGPIGLAALLTAQFYSPAEIIMIDLDDNRLGIARQFGATQTINSGDGRAAETVKALTGGRGVDTAIEAVGVPATFELCQDLVGPGGVIANIGVHGRKVDLHLDRLWSQNIAITTRLVDTVSTPMLLKTVQSRKLDPSQLITHRFRLDEILAAYDTFARAADTQALKVIIAA
# B2: Beijerinckia indica subsp. Indica ATCC 9039 ADH (BiADH), SEQ ID NO: 31 (Beijerinckia indica subsp. indica ATCC 9039) (protein)
# chain: MKALVYRGPGQKLVEERQKPELKEPGDAIVKVTKTTICGTDLHILKGDVATCKPGRVLGHEGVGVIESVGSGVTAFQPGDRVLISCISSCGKCSFCRRGMFSHCTTGGWILGNEIDGTQAEYVRVPHADTSLYRIPAGADEEALVMLSDILPTGFECGVLNGKVAPGSSVAIVGAGPVGLAALLTAQFYSPAEIIMIDLDDNRLGLAKQFGATRTVNSTGGNAAAEVKALTEGLGVDTAIEAVGIPATFELCQNIVAPGGTIANVGVHGSKVDLHLESLWSHNVTITTRLVDTATTPMLLKTVQSHKLDPSRLITHRFSLDQILDAYETFGQAASTQALKVIISMEA
# B3: Saccharomyces cerevisiae ADH7 (ScADH7), SEQ ID NO: 23 (Saccharomyces cerevisiae S288C) (protein)
# chain: MLYPEKFQGIGISNAKDWKHPKLVSFDPKPFGDHDVDVEIEACGICGSDFHIAVGNWGPVPENQILGHEIIGRVVKVGSKCHTGVKIGDRVGVGAQALACFECERCKSDNEQYCTNDHVLTMWTPYKDGYISQGGFASHVRLHEHFAIQIPENIPSPLAAPLLCGGITVFSPLLRNGCGPGKRVGIVGIGGIGHMGILLAKAMGAEVYAFSRGHSKREDSMKLGADHYIAMLEDKGWTEQYSNALDLLVVCSSSLSKVNFDSIVKIMKIGGSIVSIAAPEVNEKLVLKPLGLMGVSISSSAIGSRKEIEQLLKLVSEKNVKIWVEKLPISEEGVSHAFTRMESGDVKYRFTLVDYDKKFHK
# notes: hexa-histidine (pBADHisA) (N); made in house; host or cells: E. coli (BL21-CodonPlus or a proprietary E. coli strain)
# B4: Clostridium beijerinckii ADH (CbADH), SEQ ID NO: 29 (Clostridium beijerinckii) (protein)
# chain: MKGFAMLGINKLGWIEKERPVAGSYDAIVRPLAVSPCTSDIHTVFEGALGDRKNMILGHEAVGEVVEVGSEVKDFKPGDRVIVPCTTPDWRSLEVQAGFQQHSNGMLAGWKFSNFKDGVFGEYFHVNDADMNLAILPKDMPLENAVMITDMMTTGFHGAELADIQMGSSVVVIGIGAVGLMGIAGAKLRGAGRIIGVGSRPICVEAAKFYGATDILNYKNGHIVDQVMKLTNGKGVDRVIMAGGGSETLSQAVSMVKPGGIISNINYHGSGDALLIPRVEWGCGMAHKTIKGGLCPGGRLRAEMLRDMVVYNRVDLSKLVTHVYHGFDHIEEALLLMKDKPKDLIKAVVIL
# notes: as for B3
# B5: horse liver ADH (HLADH), SEQ ID NO: 21 (Equus caballus) (protein)
# chain: MSTAGKVIKCKAAVLWEEKKPFSIEEVEVAPPKAHEVRIKMVATGICRSDDHVVSGTLVTPLPVIAGHEAAGIVESIGEGVTTVRPGDKVIPLFTPQCGKCRVCKHPEGNFCLKNDLSMPRGTMQDGTSRFTCRGKPIHHFLGTSTFSQYTVVDEISVAKIDAASPLEKVCLIGCGFSTGYGSAVKVAKVTQGSTCAVFGLGGVGLSVIMGCKAAGAARIIGVDINKDKFAKAKEVGATECVNPQDYKKPIQEVLTEMSNGGVDFSFEVIGRLDTMVTALSCCQEAYGVSVIVGVPPDSQNLSMNPMLLLSGRTWKGAIFGGFKSKDSVPKLVADFMAKKFALDPLITHVLPFEKINEGFDLLRSGESIRTILTF
# notes: purchased Sigma A-6128
# B6: Thermus sp. ATN1 ADH (TADH), SEQ ID NO: 33 (Thermus sp. ATN1) (protein)
# chain: MRAVVFENKERVAVKEVNAPRLQHPLDALVRVHLAGICGSDLHLYHGKIPVLPGSVLGHEFVGQVEAVGEGIQDLQPGDWVVGPFHIACGTCPYCRRHQYNLCERGGVYGYGPMFGNLQGAQAEILRVPFSNVNLRKLPPNLSPERAIFAGDILSTAYGGLIQGQLRPGDSVAVIGAGPVGLMAIEVAQVLGASKILAIDRIPERLERAASLGAIPINAEQENPVRRVRSETNDEGPDLVLEAVGGAATLSLALEMVRPGGRVSAVGVDNAPSFPFPLASGLVKDLTFRIGLANVHLYIDAVLALLASGRLQPERIVSHYLPLEEAPRGYELFDRKEALKVLLVVRG
# B7: Saccharomyces cerevisiae ADH6 (ScADH6), SEQ ID NO: 22 (Saccharomyces cerevisiae S288C) (protein)
# chain: MSYPEKFEGIAIQSHEDWKNPKKTKYDPKPFYDHDIDIKIEACGVCGSDIHCAAGHWGNMKMPLVVGHEIVGKVVKLGPKSNSGLKVGQRVGVGAQVFSCLECDRCKNDNEPYCTKFVTTYSQPYEDGYVSQGGYANYVRVHEHFVVPIPENIPSHLAAPLLCGGLTVYSPLVRNGCGPGKKVGIVGLGGIGSMGTLISKAMGAETYVISRSSRKREDAMKMGADHYIATLEEGDWGEKYFDTFDLIVVCASSLTDIDFNIMPKAMKVGGRIVSISIPEQHEMLSLKPYGLKAVSISYSALGSIKELNQLLKLVSEKDIKIWVETLPVGEAGVHEAFERMEKGDVRYRFTLVGYDKEFSD
# notes: as for B3
# B8: Methylocella silvestris BL2 ADH (MsADH), SEQ ID NO: 35 (Methylocella silvestris BL2) (protein)
# chain: MKALVYHGPGQKALEERPKPQIEASGDAIVKIVKTTICGTDLHILKGDVATCAPGRILGHEGVGIIDSVGAGVTAFQPGDRVLISCISSCGKCDYCRRGLYSHCTTGGWILGNEIDGTQAEYVRTPHADTSLYRIPAGADEEALVMLSDILPTGFECGVLNGKVEPGSTVAIVGAGPIGLAALLTAQFYAPGDIIMIDLDDNRLDVARRFGATHTINSGDGKAAEAVKALTGGIGVDTAIEAVGIPATFLLCEDIVAPGGVIANVGVHGVKVDLHLERLWAHNITITTRLVDTVTTPMLLKTVQSKKLDPLQLITHRFTLDHILDAYDTFSRAADTKALKVIVSA
# What was measured:
# [1] = substrate: CC(C)C=O; test: isobutyraldehyde reduction kinetics (A340, initial rates); type: biochemical, Phenylobacterium zucineum HLK1; conditions: other: 30° C., pH 7.0, NADH specific
# Source text: (§1) This example describes preparation of ADH-gene constructs for over-expression/purification and measurement of enzyme activities using a time-course assay. Horse-liver ADH (HLADH; A-6128) was purchased from Sigma. Achromobacter xylosoxidans SadB (SadB), Saccharomyces cerevisiae ADH6 (ScADH6) and ADH7 (ScADH7), Entamoeba histolytica ADH1 (EhADH1), Bos Taurus Aldehyde Reductase (BtARD), Beijerinckia indica subsp. Indica ATCC 9039 (BiADH), Clostridium beijerinckii ADH (CbADH), Rana perezi ADH8 (RpADH8), Rattus norvegicus ADH1 (RnADH1), Thermus sp. ATN1 ADH (TADH), Phenylobacterium zucineum HLK1 ADH (PzADH), Methylocella silvestris BL2 ADH (MsADH), Acinetobacter baumannii AYE ADH (AbADH), Geobacillus sp. WCH70 ADH (GbADH), Vanderwaltozyma polyspora DSM 70294 ADH (VpADH), Mucor circinelloides ADH (McADH), and Rhodococcus erythropolis PR4ADH (ReADH) were the candidates for which subclones were prepared for protein expression and purification.
# (§2) As a routine practice, the crude extracts and purified proteins were assayed for butanol oxidation activity, in order to ensure that the recombinant proteins were active throughout the purification process. […] Alcohol oxidation activities were carried out in 50 mM sodium phosphate buffer at pH 8.8 and aldehyde reduction reactions were assayed in 190 mM potassium phosphate buffer at pH 7.0. […]
# (§3) Kinetic constants of the ADH enzymes were calculated and compared to identify those candidate ADH enzymes with the most desirable properties for the conversion of isobutyraldehyde to isobutanol in the last step of the engineered pathway for isobutanol production. […] The kcat/KM is derived from the individual numbers of kcat and KM and not an experimentally determined value. […]
# (§4) Seven additional candidate ADH enzymes were synthesized, expressed, and assayed according to methods such as described in Example 2. […] A comparison of KM, KI, and kcat/KM for each candidate enzyme as compared to the same parameter for SadB are given in Table 9 as a percentage of the values determined (Table 7) for SadB. […]
# [2] = substrate: NC(=O)C1=CN([C@@H]2O[C@H](COP(=O)(O)OP(=O)(O)OC[C@H]3O[C@@H](n4cnc5c(N)ncnc54)[C@H](O)[C@@H]3O)[C@@H](O)[C@H]2O)C=CC1; test: purified protein, by the assay type; conditions: other: cofactor; 30.0 °C
# [3] = substrate: CC(C)C=O; test: purified protein, by the assay type; type: biochemical, Beijerinckia indica; conditions: other: 30° C., pH 7.0, 200 μM NADH
# Protocol: (§6) The assays for determining the kinetic constants were carried out using initial rates from the assays described above. […] The concentration of a given enzyme was such that it was conducive for the measurement of initial velocities over a 1-min time course. […] The kcat/KM is derived from the individual numbers of kcat and KM and not an experimentally determined value. […]
# [4] = substrate: CC(C)CO; test: isobutanol oxidation kinetics; type: biochemical, Beijerinckia indica; conditions: other: 30° C., pH 8.8, 7.5 mM NAD
# Protocol: (§5) As a routine practice, the crude extracts and purified proteins were assayed for butanol oxidation activity, in order to ensure that the recombinant proteins were active throughout the purification process. […] Alcohol oxidation activities were carried out in 50 mM sodium phosphate buffer at pH 8.8 and aldehyde reduction reactions were assayed in 190 mM potassium phosphate buffer at pH 7.0. Depending on the nature of reaction being carried out, the enzyme and cofactor stocks were diluted in the reaction buffers at the respective pHs. Either buffer or cell extract prepared from the proprietary E. coli strain (with no ADH plasmid) was used as the negative control for assays with purified protein and cell-free extracts, respectively.
# as §3, with “production. The assays for determining the kinetic constants were carried out using initial rates from the assays described above. […] The concentration of a given enzyme was such that it was conducive for the measurement of initial velocities over a 1-min time course.” for “production.”
# [5] = substrate: CC(C)C=O; test: isobutyraldehyde reduction kinetics (A340, initial rates); type: biochemical, Saccharomyces cerevisiae; conditions: other: 30° C., pH 7.0, NADPH specific
# Protocol: as §6
# [6] = substrate: CC(C)C=O; test: as above; type: biochemical, Clostridium beijerinckii; conditions: other: 30° C., pH 7.0, NADPH specific
# Protocol: as §6
# [7] = substrate: CC(C)C=O; test: as above; type: biochemical, horse; conditions: other: 30° C., pH 7.0, 200 μM NADH
# Protocol: as §6
# [8] = substrate: CC(C)CO; test: isobutanol oxidation kinetics; type: biochemical, horse; conditions: other: 30° C., pH 8.8, 7.5 mM NAD
# Protocol: as §5
# as §3, with “production. The assays for determining the kinetic constants were carried out using initial rates from the assays described above. […] The concentration of a given enzyme was such that it was conducive for the measurement of initial velocities over a 1-min time course.” for “production.”
# [9] = substrate: CC(C)C=O; test: isobutyraldehyde reduction kinetics (A340, initial rates); type: biochemical, Thermus sp. ATN1; conditions: other: 30° C., pH 7.0, NADH specific
# [10] = substrate: CC(C)C=O; test: as above; type: biochemical, Methylocella silvestris BL2; conditions: other: 30° C., pH 7.0, NADH specific
# Source text: as §1, §2, §3, §4
protein,measurement,setting,value
B1,Km,[1],100 µM
same,kcat,[1],30 s⁻¹
same,kcat/Km,[1],321000 M⁻¹ s⁻¹
B2,Km,[2],KM (NADH) = 0.06 mM mM
same,Km,[3],200 µM
same,kcat,[3],283 s⁻¹
same,kcat/Km,[3],1.25e+06 M⁻¹ s⁻¹
same,Km,[4],KM = 4.7 mM] mM
B3,Km,[5],300 µM
same,kcat,[5],36 s⁻¹
same,kcat/Km,[5],120000 M⁻¹ s⁻¹
B4,Km,[6],1500 µM
same,kcat,[6],123 s⁻¹
same,kcat/Km,[6],85000 M⁻¹ s⁻¹
B5,Km,[7],100 µM
same,kcat,[7],8 s⁻¹
same,kcat/Km,[7],82000 M⁻¹ s⁻¹
same,Km,[8],KM = 0.4 mM] mM
B6,Km,[9],1300 µM
same,kcat,[9],15 s⁻¹
same,kcat/Km,[9],11000 M⁻¹ s⁻¹
B7,Km,[5],600 µM
same,kcat,[5],47 s⁻¹
same,kcat/Km,[5],81000 M⁻¹ s⁻¹
B8,Km,[10],60 µM
same,kcat,[10],33 s⁻¹
same,kcat/Km,[10],530000 M⁻¹ s⁻¹
